From article PMC5036783 (Biophysics, 2011)

Columns and labels:
Experiment in all cases: pull-down; Ni-NTA resin holding histidine tagged fusion pHtrII from cell-free translation; untagged ppR 0.8 mM and pHtrII 0.08 mM mixed in buffer S (300 mM NaCl, 50 mM MES, 5 mM imidazole, pH 6.5) with 0.1% DDM, 1 h, room temperature; eluted ppR read by absorbance at 498 nm
Conditions in all cases: one partner purified
[1] = biological target: T1, green fluorescent protein-tagged pHtrII 1-114 (cell-free) (Natronomonas pharaonis, UniProt P42259 1-114)
T1 sequence (looked up): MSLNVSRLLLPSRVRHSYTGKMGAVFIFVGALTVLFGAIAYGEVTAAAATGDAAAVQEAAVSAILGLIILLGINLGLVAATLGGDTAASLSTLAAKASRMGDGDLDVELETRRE

[2] = biological target: T2, thioredoxin-tagged pHtrII 1-114 (cell-free) (Natronomonas pharaonis, UniProt P42259 1-114)
T2 sequence (looked up): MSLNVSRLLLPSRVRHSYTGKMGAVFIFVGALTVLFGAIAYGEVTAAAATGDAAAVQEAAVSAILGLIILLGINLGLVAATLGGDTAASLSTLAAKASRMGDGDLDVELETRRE

[3] = biological target: T3, glutathione S-transferase-tagged pHtrII 1-114 (cell-free) (Natronomonas pharaonis, UniProt P42259 1-114)
T3 sequence (looked up): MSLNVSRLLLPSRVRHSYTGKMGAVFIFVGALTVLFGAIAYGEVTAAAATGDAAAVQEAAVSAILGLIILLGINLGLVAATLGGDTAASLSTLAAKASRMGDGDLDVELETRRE

Measured: binding activity relative to pHtrII expressed in E. coli

B1: pharaonis phoborhodopsin (ppR), untagged (natural protein, Natronomonas pharaonis, UniProt P42196 1-239, looked up)
chain: MVGLTTLFWLGAIGMLVGTLAFAWAGRDAGSGERRYYVTLVGISGIAAVAYVVMALGVGWVPVAERTVFAPRYIDWILTTPLIVYFLGLLAGLDSREFGIVITLNTVVMLAGFAGAMVPGIERYALFGMGAVAFLGLVYYLVGPMTESASQRSSGIKSLYVRLRNLTVILWAIYPFIWLLGPPGVALLTPTVDVALIVYLDLVTKVGFGFIALDAAATLRAEHGESLAGVDTDAPAVAD
~50%: all assays above
